The values that follow come from patent publication US20250353904A1 (INSTITUTE OF SCIENCE TOKYO, published 2025).

For test [1], the target named is T1, human disulfide HMGB1 (human, UniProt P09429 1-215, disulfide form (ds-HMGB1) as printed; the cysteines involved are not stated).
T1 construct: also called human dsHMGB1; ds-HMGB1
T1 sequence (looked up): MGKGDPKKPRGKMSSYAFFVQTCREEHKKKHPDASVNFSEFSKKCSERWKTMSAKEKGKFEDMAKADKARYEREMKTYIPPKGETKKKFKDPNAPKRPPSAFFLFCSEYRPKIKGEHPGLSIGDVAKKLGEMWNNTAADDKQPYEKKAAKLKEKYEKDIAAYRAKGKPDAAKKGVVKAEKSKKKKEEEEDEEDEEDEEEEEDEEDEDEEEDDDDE
The test can be described thus: SPR as in Example 1; unit inferred; human dsHMGB1; before storage.

Test [2] addresses T2, human reduced HMGB1 (human, UniProt P09429 1-215, reduced form as printed).
T2 sequence (looked up): T1 sequence (looked up)
Kind of test: SPR as in Example 1; unit inferred; human reduced HMGB1.

Test [3] concerns the target T2, human reduced HMGB1. The test can be described thus: ELISA, saturation curve: concentration of bound antibody against concentration of added antibody, on human reduced HMGB1. (ELISA stands for enzyme-linked immunosorbent assay.)
For test [4], the target named is T1, human disulfide HMGB1. Kind of test: SPR, antibody after 6-month storage at 4 C; unit inferred; after storage for 6 months at 4° C. (In SPR one partner is held on a chip, and binding of the other changes the refractive index at the surface.)
Test [5] addresses T1, human disulfide HMGB1. The test can be described thus: ELISA, saturation curve: concentration of bound antibody against concentration of added antibody, on human dsHMGB1.
The target in test [6] is T1, human disulfide HMGB1. The test can be described thus: SPR, antibody after against before 6-month storage at 4 C.
Test [7] has as its target human HMGB1 protein (human) (UniProt P09429). Kind of test: SPR, Biacore T100, antibody immobilized on chip, human HMGB1 as analyte.

B1: human monoclonal antibody #129-L2 (antibody, human IgG1, kappa, V domains shown)
VH: EVQLLESGGGLVQPGGSLRLSCAASGFTFSSYAMSWVRQAPGKGLEWVSDISGSGGSTYYADSVKGRFTISRDNSKNTLYLQMNSLRAEDTAVYYCARGYGMDVWGQGTMVTVSS
VL: DIQMTQSPSSLSASVGDRVTITCRASQSVTNYLAWYQQKPGKAPKLLIYGASILETGVPSRFSGSGSGTDFTLTINSLQPEDFATYYCLQHASTPLTFGQGTKLEIKT
Consider B1, for which the Kd (usually the free concentration of one partner at which half of the binding sites on the other are occupied at equilibrium, for simple one-to-one binding) with human disulfide HMGB1 [1] was 0.0144 nM; with human reduced HMGB1 [2], 15100 nM; with human reduced HMGB1 [3], 6880 nM; in the test with human disulfide HMGB1 [4] it was 0.0351 nM; in the test with human disulfide HMGB1 [5], 0.0549 nM. The Michaelis-Menten constant (Km) (usually the concentration of substrate that gives half-maximal velocity) with human reduced HMGB1 [3] was 4.34e-09 M (from the axes; none beside the number). Also, the “fold increase of KD after storage against before storage” value in the test with human disulfide HMGB1 [6] was around 2.5 fold.

B2: mouse monoclonal antibody 2C8C (antibody, from another filing, V domains shown)
VH: QVQLQQSGPELVKPGASVKLSCKASGYTFTDYTIHWVKQSPGQGLEWIGWIYPGSGNTKYNDKFKGKATMTADKSSSTAYMQLSSLTSEDSAVYFCARGFAYWGQGTLVTVSA
VL: DIVLTQSPATLSVTPGDSVSLSCRASQSISNNLHWYQQKSHESPRLLIKYASQSISGIPSRFSGSGSGTDFTLSINSVETEDFGMYFCQQTNSWPLTFGAGTKLELK
The molecule B2 had a Kd in test [7] of 1.95 nM.
